{
  "source": "paper doi:10.1101/2021.10.01.462756",
  "about": "(bioRxiv, 2021)",
  "binders": {"B1": {"name": "Rad24 (natural protein)", "chain": "MDSTNLNKRPLLQYSLSSLGSQITKWSSSRPTSPVRKARSTENDFLSKQDTSSILPSINDDGGEQWYEKFKPNCLEQVAIHKRKLKDVQEALDAMFLPNAKHRILLLSGPSGCSKSTVIKELSKILVPKYRQNSNGTSFRSTPNEHKVTEFRGDCIVNDLPQMESFSEFLKGARYLVMSNLSLILIEDLPNVFHIDTRRRFQQLILQWLYSSEPLLPPLVICITECEIPENDNNYRKFGIDYTFSAETIMNKEILMHPRLKRIKFNPINSTLLKKHLKFICVQNMKMLKEKNKWNKRQEVIDYIAQETGDIRSAITTLQFWATSSGSLPISTRESTISYFHAIGKVIHGSHSTNNDNEMINNLFENSNNLLSKEDFKLGILENYNTFNKGEFSISDASSIVDCLSECDNMNGLPESNEYGLREVRKTFRNISKQGHNHGTVYFPREWKVRKLQNSFKVQAEDWLNVSLYKYNAVHSFRNITLEFGYYAPLIRKCQSYKKKYILYYLKNLPSGSSGPKQTMDKFSDIMKVENGIDVVDRIGGPIEALSVEDGLAPLMDNDSNNCDHLEDQKKERDRRLRMLIDQYERNVMMANDDLEDEETSFNDDPIVDSDSDNSNNIGNETFGRSDEDESLCEILSQRQPRKAPVISESLSDSDLEIL"}, "B2": {"name": "Ddc1 (natural protein)", "chain": "MSFKATITESGKQNIWFRAIYVLSTIQDDIKITVTTNELIAWSMNETDTTLCQVRFQKSFFEEYEFKPHEIVFGENGVQVIEDTYGNSHKLYSFRVNGRHLTTISRKPDGDGIKSFTIAVNNTSTCPESLANRLIVVIEMDSLIVKEYCPQFQPIKYDPIIINLKYKRRFLDVFGTAASDRNPQEPLDPKLLDVFTNTERELTSALFNEEVESDIRKRNQLTAADEINYICCNSTLLKNFLDNCNVNVTDEVKLEINVHRLSITAFTKAVYGKNNDLLRNALSMSNTISTLDLEHYCLFTTIEDEKQDKRSHSKRREHMKSIIFKLKDFKNFITIGPSWKTTQDGNDNISLWFCHPGDPILMQMQKPGVKLELVEVTDSNINDDILEGKFIKTAISGSKEEAGLKDNKESCESPLKSKTALKRENLPHSVAGTRNSPLKVSYLTPDNGSTVAKTYRNNTARKLFVEEQSQSTNYEQDKRFRQASSVHMNMNREQSFDIGTTHEVACPRNESNSLKRSIADICNETEDPTQQSTFAKRADTTVTWGKALPAADDEVSCSNIDRKGMLKKEKLKHMQGLLNSQNDTSNHKKQDNKEMEDGLGLTQVEKPRGIFD"}},
  "assay_in_all_cases": "cryo-EM structure",
  "key": {"Ddc1": {"target": "B2"}, "[1]": {"target": "T1, 9-1-1 clamp (Ddc1–Mec3–Rad17) (S. cerevisiae, UniProt Q08949;Q02574;P48581)", "T1 sequence 1": "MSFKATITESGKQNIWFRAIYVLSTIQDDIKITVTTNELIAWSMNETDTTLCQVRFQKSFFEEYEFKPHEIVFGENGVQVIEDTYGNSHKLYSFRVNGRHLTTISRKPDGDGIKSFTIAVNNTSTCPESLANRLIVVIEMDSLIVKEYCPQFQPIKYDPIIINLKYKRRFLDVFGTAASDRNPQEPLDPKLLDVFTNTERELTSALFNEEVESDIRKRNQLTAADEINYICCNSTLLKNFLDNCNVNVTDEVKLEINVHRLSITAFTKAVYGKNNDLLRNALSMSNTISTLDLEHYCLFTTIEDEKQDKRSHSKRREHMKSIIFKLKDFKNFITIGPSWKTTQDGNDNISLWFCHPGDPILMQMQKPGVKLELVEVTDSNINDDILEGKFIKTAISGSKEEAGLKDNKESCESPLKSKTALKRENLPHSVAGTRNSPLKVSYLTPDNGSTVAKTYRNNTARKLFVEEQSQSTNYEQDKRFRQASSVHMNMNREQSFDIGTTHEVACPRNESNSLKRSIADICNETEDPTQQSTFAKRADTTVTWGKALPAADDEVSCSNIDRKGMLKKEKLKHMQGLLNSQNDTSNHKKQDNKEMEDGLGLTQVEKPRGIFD", "T1 sequence 2": "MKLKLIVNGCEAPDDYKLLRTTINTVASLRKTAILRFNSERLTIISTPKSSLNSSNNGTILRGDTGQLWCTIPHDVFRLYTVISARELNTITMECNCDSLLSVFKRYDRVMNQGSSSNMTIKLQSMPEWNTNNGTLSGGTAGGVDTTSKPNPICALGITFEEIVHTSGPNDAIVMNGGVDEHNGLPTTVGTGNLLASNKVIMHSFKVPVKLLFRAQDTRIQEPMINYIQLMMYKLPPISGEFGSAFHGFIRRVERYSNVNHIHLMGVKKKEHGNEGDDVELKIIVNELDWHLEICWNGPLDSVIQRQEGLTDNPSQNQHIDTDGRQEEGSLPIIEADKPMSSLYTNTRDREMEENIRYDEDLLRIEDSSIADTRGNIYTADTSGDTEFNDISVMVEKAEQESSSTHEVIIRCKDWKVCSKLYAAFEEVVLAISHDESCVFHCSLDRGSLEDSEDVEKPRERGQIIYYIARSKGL", "T1 sequence 3": "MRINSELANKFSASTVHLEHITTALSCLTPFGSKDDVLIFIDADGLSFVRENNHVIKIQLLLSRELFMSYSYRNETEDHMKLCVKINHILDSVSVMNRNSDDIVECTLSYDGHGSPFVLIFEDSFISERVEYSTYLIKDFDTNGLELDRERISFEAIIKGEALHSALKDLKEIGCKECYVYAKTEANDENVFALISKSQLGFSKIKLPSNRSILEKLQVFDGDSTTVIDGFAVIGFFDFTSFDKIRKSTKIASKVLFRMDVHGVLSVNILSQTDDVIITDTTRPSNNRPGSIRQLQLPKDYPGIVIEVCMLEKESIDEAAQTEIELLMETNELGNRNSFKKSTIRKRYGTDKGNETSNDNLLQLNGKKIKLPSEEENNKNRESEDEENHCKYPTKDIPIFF"}, "Rad24": {"target": "B1"}, "Rad17": {"target": "T2, Rad17 (S. cerevisiae, UniProt P48581 1-401)", "T2 sequence": "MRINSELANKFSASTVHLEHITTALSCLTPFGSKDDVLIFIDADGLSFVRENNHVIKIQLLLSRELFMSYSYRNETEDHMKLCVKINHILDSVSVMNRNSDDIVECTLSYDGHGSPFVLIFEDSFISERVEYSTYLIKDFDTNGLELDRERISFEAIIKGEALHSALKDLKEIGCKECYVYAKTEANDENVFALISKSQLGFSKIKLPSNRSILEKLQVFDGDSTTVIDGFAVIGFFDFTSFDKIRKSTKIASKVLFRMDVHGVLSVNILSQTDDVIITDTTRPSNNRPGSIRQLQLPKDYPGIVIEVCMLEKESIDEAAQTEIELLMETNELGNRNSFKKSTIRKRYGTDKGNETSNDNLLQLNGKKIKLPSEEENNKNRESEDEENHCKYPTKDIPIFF"}},
  "data": [
    {"binder": "His-PK-Mec3 (natural protein) MKLKLIVNGCEAPDDYKLLRTTINTVASLRKTAILRFNSERLTIISTPKSSLNSSNNGTILRGDTGQLWCTIPHDVFRLYTVISARELNTITMECNCDSLLSVFKRYDRVMNQGSSSNMTIKLQSMPEWNTNNGTLSGGTAGGVDTTSKPNPICALGITFEEIVHTSGPNDAIVMNGGVDEHNGLPTTVGTGNLLASNKVIMHSFKVPVKLLFRAQDTRIQEPMINYIQLMMYKLPPISGEFGSAFHGFIRRVERYSNVNHIHLMGVKKKEHGNEGDDVELKIIVNELDWHLEICWNGPLDSVIQRQEGLTDNPSQNQHIDTDGRQEEGSLPIIEADKPMSSLYTNTRDREMEENIRYDEDLLRIEDSSIADTRGNIYTADTSGDTEFNDISVMVEKAEQESSSTHEVIIRCKDWKVCSKLYAAFEEVVLAISHDESCVFHCSLDRGSLEDSEDVEKPRERGQIIYYIARSKGL", "values": [
      {"measurement": "binding result", "setting": "Ddc1", "result": "binds"}
    ]},
    {"binder": "B1", "values": [
      {"measurement": "binding result", "setting": "[1]", "result": "binds"}
    ]},
    {"binder": "Rfc5 (natural protein) MSLWVDKYRPKSLNALSHNEELTNFLKSLSDQPRDLPHLLLYGPNGTGKKTRCMALLESIFGPGVYRLKIDVRQFVTASNRKLELNVVSSPYHLEITPSDMGNNDRIVIQELLKEVAQMEQVDFQDSKDGLAHRYKCVIINEANSLTKDAQAALRRTMEKYSKNIRLIMVCDSMSPIIAPIKSRCLLIRCPAPSDSEISTILSDVVTNERIQLETKDILKRIAQASNGNLRVSLLMLESMALNNELALKSSSPIIKPDWIIVIHKLTRKIVKERSVNSLIECRAVLYDLLAHCIPANIILKELTFSLLDVETLNTTNKSSIIEYSSVFDERLSLGNKAIFHLEGFIAKVMCCLD", "values": [
      {"measurement": "binding result", "setting": "Rad24", "result": "binds"},
      {"measurement": "binding result", "setting": "[1]", "result": "binds"}
    ]},
    {"binder": "B2", "values": [
      {"measurement": "binding result", "setting": "Rad24", "result": "binds"}
    ]},
    {"binder": "Rfc2 (natural protein) MFEGFGPNKKRKISKLAAEQSLAQQPWVEKYRPKNLDEVTAQDHAVTVLKKTLKSANLPHMLFYGPPGTGKTSTILALTKELYGPDLMKSRILELNASDERGISIVREKVKNFARLTVSKPSKHDLENYPCPPYKIIILDEADSMTADAQSALRRTMETYSGVTRFCLICNYVTRIIDPLASRCSKFRFKALDASNAIDRLRFISEQENVKCDDGVLERILDISAGDLRRGITLLQSASKGAQYLGDGKNITSTQVEELAGVVPHDILIEIVEKVKSGDFDEIKKYVNTFMKSGWSAASVVNQLHEYYITNDNFDTNFKNQISWLLFTTDSRLNNGTNEHIQLLNLLVKISQL", "values": [
      {"measurement": "binding result", "setting": "Ddc1", "result": "binds"}
    ]},
    {"binder": "Rfc3 (natural protein) MSTSTEKRSKENLPWVEKYRPETLDEVYGQNEVITTVRKFVDEGKLPHLLFYGPPGTGKTSTIVALAREIYGKNYSNMVLELNASDDRGIDVVRNQIKDFASTRQIFSKGFKLIILDEADAMTNAAQNALRRVIERYTKNTRFCVLANYAHKLTPALLSRCTRFRFQPLPQEAIERRIANVLVHEKLKLSPNAEKALIELSNGDMRRVLNVLQSCKATLDNPDEDEISDDVIYECCGAPRPSDLKAVLKSILEDDWGTAHYTLNKVRSAKGLALIDLIEGIVKILEDYELQNEETRVHLLTKLADIEYSISKGGNDQIQGSAVIGAIKASFENETVKANV", "values": [
      {"measurement": "binding result", "setting": "Rad17", "result": "binds"}
    ]},
    {"binder": "Rfc4 (natural protein) MSKTLSLQLPWVEKYRPQVLSDIVGNKETIDRLQQIAKDGNMPHMIISGMPGIGKTTSVHCLAHELLGRSYADGVLELNASDDRGIDVVRNQIKHFAQKKLHLPPGKHKIVILDEADSMTAGAQQALRRTMELYSNSTRFAFACNQSNKIIEPLQSRCAILRYSKLSDEDVLKRLLQIIKLEDVKYTNDGLEAIIFTAEGDMRQAINNLQSTVAGHGLVNADNVFKIVDSPHPLIVKKMLLASNLEDSIQILRTDLWKKGYSSIDIVTTSFRVTKNLAQVKESVRLEMIKEIGLTHMRILEGVGTYLQLASMLAKIHKLNNKA", "values": [
      {"measurement": "binding result", "setting": "Rad24", "result": "binds"},
      {"measurement": "binding result", "setting": "Rad17", "result": "binds"}
    ]}
  ]
}
